The values that follow come from article PMC2112059.

The experiment concerns the target Triton X-100-insoluble residue of platelets (platelet cytoskeleton) (human (endogenous in platelets)) (UniProt P60709). Briefly: co-sedimentation.

With “platelet surface glycoprotein GPIII (from UniProt P05106 27-788) (natural protein)”, the percent of radioactivity in the supernatant fraction, without m1 is greater than 95%.
